Target: the molecule itself
Assay: SEC-MALS; MALLS-SEC of purified GST-core RAG2 (0.01-0.03 mg), kept at 4°C before SEC; Superdex 200; 25 mM Tris pH 8.0, 150 mM KCl, 2 mM dithiothreitol; 40-200 nM in Peak 2

B1: GST-core RAG2 (domain or fragment, UniProt P21784 1-387, looked up)
chain: MSLQMVTVGHNIALIQPGFSLMNFDGQVFFFGQKGWPKRSCPTGVFHFDIKQNHLKLKPAIFSKDSCYLPPLRYPATCSYKGSIDSDKHQYIIHGGKTPNNELSDKIYIMSVACKNNKKVTFRCTEKDLVGDVPEPRYGHSIDVVYSRGKSMGVLFGGRSYMPSTQRTTEKWNSVADCLPHVFLIDFEFGCATSYILPELQDGLSFHVSIARNDTVYILGGHSLASNIRPANLYRIRVDLPLGTPAVNCTVLPGGISVSSAILTQTNNDEFVIVGGYQLENQKRMVCSLVSLGDNTIEISEMETPDWTSDIKHSKIWFGSNMGNGTIFLGIPGDNKQAMSEAFYFYTLRCSEEDLSEDQKIVSNSQTSTEDPGDSTPFEDSEEFCFS
notes: RAG2 core region; core RAG2 portion printed as 42.6 kDa; Predicted monomer mass 68.9 kDa; The authors put the dimeric state down to the GST moiety, which is known to dimerize; also called core RAG2 fused to glutathione S-transferase; GST-RAG2
With B1 as the protein, how does the “stoichiometry N” value read?
The value was 2.
